In patent US20250320281A1:

What was measured:
Assay in all cases: cell-based or functional assay
[1] = target: HIV-1 APV-6 envelope glycoprotein (Env) on pseudovirus (HIV-1)
[2] = target: HIV-1 envelope glycoprotein (Env) of isolate MGRM-A-014, clade A (HIV-1)
[3] = target: HIV-1 Env of pseudovirus MGRM-Chronic-B-023 (HIV-1)
[4] = target: HIV-1 Env of pseudovirus MGRM-AE-003 (clade CRF01_AE) (HIV-1)
[5] = target: HIV-1 92BR020 envelope glycoprotein (Env) on pseudovirus (HIV-1)
[6] = target: HIV-1 Env of pseudovirus MGRM-AE-004 (clade CRF01_AE) (HIV-1)
[7] = target: HIV-1 92UG005 envelope glycoprotein (Env) on pseudovirus (HIV-1)
[8] = target: HIV-1 envelope glycoprotein (Env) of isolate 92RW020, clade A (HIV-1)
[9] = target: HIV-1 Env of pseudovirus MGRM-G-028 (HIV-1, clade G isolate MGRM-G-028)
[10] = target: HIV-1 Env of isolate 92RW021 (clade A pseudovirus) (HIV-1)
[11] = target: HIV-1 Env of pseudovirus MGRM-AG-001 (clade CRF_AG) (HIV-1)
[12] = target: HIV-1 Env of isolate MGRM-D-011 (clade D pseudovirus) (HIV-1)
[13] = target: HIV-1 Env of isolate MGRM-D-026 (clade D pseudovirus) (HIV-1)
[14] = target: HIV-1 Env of pseudovirus MGRM-Chronic-B-018 (HIV-1)
[15] = target: HIV-1 92UG024 envelope glycoprotein (Env) on pseudovirus (HIV-1)
[16] = target: HIV-1 Env of isolate MGRM-G-017 (HIV-1)
[17] = target: HIV-1 Env of isolate 92TH021 (clade AE), on pseudovirus (HIV-1)
[18] = target: HIV-1 Env of isolate MGRM-G-019 (HIV-1)
[19] = target: HIV-1 Env of isolate MGRM-G-011 (HIV-1)
[20] = target: HIV-1 Env of isolate MGRM-G-024 (HIV-1)
[21] = target: HIV-1 Env of isolate MG RM-D-019 (HIV-1)
[22] = target: HIV-1 Env of isolate MGRM-D-026 (pseudovirus) (HIV-1)
[23] = target: HIV-1 93UG077 Env (pseudovirus, clade A) (HIV-1)
[24] = target: HIV-1 Env of isolate MGRM-D-001 (clade D), on pseudovirus (HIV-1)
[25] = target: HIV-1 Env of isolate 92UG005 (clade D), on pseudovirus (HIV-1)
[26] = target: HIV-1 Env of isolate MGRM-F1-004 (pseudovirus) (HIV-1)
[27] = target: HIV-1 Env of isolate MGRM-Chronic-B-002 (subtype B pseudovirus) (HIV-1)
[28] = target: HIV-1 Env of isolate NL43 (subtype B pseudovirus) (HIV-1)
[29] = target: HIV-1 JRFL Env (pseudovirus, clade B) (HIV-1)
[30] = target: HIV-1 Env of isolate MGRM-D-012 (pseudovirus) (HIV-1)
[31] = target: HIV-1 Env of isolate CMU02 (clade AE), on pseudovirus (HIV-1)
[32] = target: HIV-1 Env of pseudovirus isolate MGRM-G-028 (HIV-1)
[33] = target: HIV-1 Env of pseudovirus isolate MGRM-G-024 (HIV-1)
[34] = target: HIV-1 93UG077 Env (pseudovirus) (HIV-1)
[35] = target: HIV-1 Env of isolate 92BR020 (HIV-1)
[36] = target: HIV-1 Env of isolate JR-CSF (pseudovirus) (HIV-1) (UniProt P20871)

4980_N08 (PGT-143) (antibody), sequence (VH): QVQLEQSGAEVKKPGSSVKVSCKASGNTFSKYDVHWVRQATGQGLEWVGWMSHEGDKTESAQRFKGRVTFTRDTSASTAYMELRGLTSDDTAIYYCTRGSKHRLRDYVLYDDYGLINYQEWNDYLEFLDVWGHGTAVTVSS
4980_N08 (PGT-143) (antibody), sequence (VL): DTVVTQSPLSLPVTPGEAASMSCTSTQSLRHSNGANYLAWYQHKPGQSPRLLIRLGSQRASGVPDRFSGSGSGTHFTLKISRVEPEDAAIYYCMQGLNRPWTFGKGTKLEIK
4993_K13 (PGT-141) (antibody), sequence (VH): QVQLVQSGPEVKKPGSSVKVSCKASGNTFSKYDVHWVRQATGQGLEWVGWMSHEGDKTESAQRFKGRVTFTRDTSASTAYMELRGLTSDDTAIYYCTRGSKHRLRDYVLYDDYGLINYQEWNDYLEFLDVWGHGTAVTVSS
4993_K13 (PGT-141) (antibody), sequence (VL): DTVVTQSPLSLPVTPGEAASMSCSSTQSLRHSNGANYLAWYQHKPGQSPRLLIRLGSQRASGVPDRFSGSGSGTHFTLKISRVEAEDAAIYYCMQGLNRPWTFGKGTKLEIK
4970_K22 (PGT-144) (antibody), sequence (VH): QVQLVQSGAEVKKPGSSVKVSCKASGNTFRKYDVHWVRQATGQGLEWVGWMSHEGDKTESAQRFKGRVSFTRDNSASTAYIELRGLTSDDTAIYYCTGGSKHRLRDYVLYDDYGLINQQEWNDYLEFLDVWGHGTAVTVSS
4970_K22 (PGT-144) (antibody), sequence (VL): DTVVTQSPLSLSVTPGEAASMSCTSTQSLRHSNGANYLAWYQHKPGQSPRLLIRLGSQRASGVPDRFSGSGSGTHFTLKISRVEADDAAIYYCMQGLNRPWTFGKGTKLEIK
1443_C16 (PG16) (TCN-116) (antibody), sequence (VH): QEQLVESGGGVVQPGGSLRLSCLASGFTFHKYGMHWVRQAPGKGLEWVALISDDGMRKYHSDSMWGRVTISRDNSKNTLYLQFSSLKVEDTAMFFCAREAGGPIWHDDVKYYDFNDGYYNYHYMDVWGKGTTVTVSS
1443_C16 (PG16) (TCN-116) (antibody), sequence (VL): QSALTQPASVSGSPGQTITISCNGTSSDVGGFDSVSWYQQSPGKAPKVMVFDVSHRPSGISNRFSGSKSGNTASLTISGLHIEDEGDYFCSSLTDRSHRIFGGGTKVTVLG
4995_E20 (PGT-142) (antibody), sequence (VH): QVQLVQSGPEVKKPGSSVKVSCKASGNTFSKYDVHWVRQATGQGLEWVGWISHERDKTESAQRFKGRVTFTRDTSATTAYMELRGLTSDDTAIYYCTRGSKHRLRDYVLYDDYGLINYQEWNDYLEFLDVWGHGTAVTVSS

Substance	IC50, pseudovirus neutralization [1]	IC50 (µg/ml), pseudovirus neutralization [2]	IC50 (µg/ml), pseudovirus neutralization [3]	IC50 [4]	IC50, pseudovirus neutralization [5]	IC50 [6]	IC50, pseudovirus neutralization [7]	IC50 (µg/ml), pseudovirus neutralization [8]	IC50 (µg/ml), pseudovirus neutralization [9]	IC50 (µg/ml), pseudovirus neutralization [10]	IC50 [11]	IC50 (µg/ml), pseudovirus neutralization [12]	IC50 (µg/ml), pseudovirus neutralization [13]	IC50 (µg/ml), pseudovirus neutralization [14]	IC50, pseudovirus neutralization [15]	IC50 (µg/mL), pseudovirus neutralization [16]	IC50 (µg/mL), pseudovirus neutralization [18]	IC50 (µg/mL), pseudovirus neutralization [19]	IC50 (µg/mL), pseudovirus neutralization [20]	also measured
4E10 (antibody)	0.4 µg/mL	1.74 µg/mL	27.9 µg/mL	0.34 µg/mL	41.4 µg/mL	1.27 µg/mL	8.86 µg/mL	4.54 µg/mL	6.32 µg/mL	4.87 µg/mL	1.12 µg/mL	0.91 µg/mL	2.95 µg/mL	23.2 µg/mL	1.32 µg/mL	–	–	–	–	–
1496_C09 (PG9) (TCN-109) (antibody)	0.0869 µg/mL	0.62 µg/mL	0.04 µg/mL	–	–	0.01 µg/mL	–	0.08 µg/mL	–	0.05 µg/mL	8.83 µg/mL	0.06 µg/mL	17.5 µg/mL	0.16 µg/mL	–	0.104 µg/mL	14.6 µg/mL	0.335 µg/mL	0.163 µg/mL	IC50, pseudovirus neutralization [17]: 0.103 µg/mL
1443_C16 (PG16) (TCN-116) (antibody)	0.08 µg/mL	20.3 µg/mL	0.13 µg/mL	0.03 µg/mL	> 50 µg/mL	0.002 µg/mL	> 50 µg/mL	0.28 µg/mL	3.09 µg/mL	0.11 µg/mL	0.03 µg/mL	0.01 µg/mL	> 50 µg/mL	0.7 µg/mL	> 50 µg/mL	–	–	–	–	–
VRC01 (antibody)	–	–	–	–	–	–	–	–	–	–	–	–	–	–	–	0.124 µg/mL	0.06 µg/mL	0.065 µg/mL	0.025 µg/mL	IC50 [21]: 0.119 µg/mL
4877_D15 (PGT-122) (antibody)	–	–	–	–	–	–	–	–	–	–	–	–	–	–	–	–	–	–	–	IC50, pseudovirus neutralization [22]: > 50 µg/mL; IC50, pseudovirus neutralization [17]: > 10 µg/mL; IC50 neutralization [23]: 0.191 µg/mL; IC50, pseudovirus neutralization [24]: 0.867 µg/mL; IC50, pseudovirus neutralization [25]: > 10 µg/mL; IC50, pseudovirus neutralization [26]: 1.29 µg/mL; IC50 (µg/mL), pseudovirus neutralization [27]: 1.8 µg/mL; IC50 (µg/mL), pseudovirus neutralization [28]: > 50 µg/mL; IC50 neutralization [29]: 0.0471 µg/mL; IC50, pseudovirus neutralization [30]: > 50 µg/mL; IC50, pseudovirus neutralization [31]: > 10 µg/mL; IC50 (µg/mL), pseudovirus neutralization [32]: 0.01 µg/mL; IC50 (µg/mL), pseudovirus neutralization [33]: 0.033 µg/mL; neutralization IC50 (pseudovirus) [34]: 0.191 µg/mL
4995_E20 (PGT-142) (antibody)	–	–	–	–	–	–	–	–	–	–	–	–	–	–	–	0.125 µg/mL	5.95 µg/mL	0.046 µg/mL	0.054 µg/mL	IC50 (neutralizing activity, pseudovirus) [34]: > 10 µg/mL
4980_N08 (PGT-143) (antibody)	–	–	–	–	–	–	–	–	–	–	–	–	–	–	–	0.107 µg/mL	4.77 µg/mL	0.074 µg/mL	0.048 µg/mL	IC50 (neutralizing activity, pseudovirus) [34]: > 10 µg/mL
PGV04 (antibody)	–	–	–	–	–	–	–	–	–	–	–	–	–	–	–	0.065 µg/mL	0.027 µg/mL	0.78 µg/mL	0.033 µg/mL	IC50 (µg/mL), pseudovirus neutralization [35]: 0.25 µg/mL; IC50 (µg/mL), pseudovirus neutralization [25]: 0.44 µg/mL
b12 (antibody)	> 25 µg/mL	> 50 µg/mL	> 50 µg/mL	> 50 µg/mL	27.5 µg/mL	> 50 µg/mL	> 50 µg/mL	> 50 µg/mL	> 50 µg/mL	> 50 µg/mL	11.9 µg/mL	7.75 µg/mL	1.55 µg/mL	0.66 µg/mL	49.1 µg/mL	–	–	–	–	–
4993_K13 (PGT-141) (antibody)	–	–	–	–	–	–	–	–	–	–	–	–	–	–	–	0.164 µg/mL	20.3 µg/mL	0.086 µg/mL	0.051 µg/mL	IC50 (neutralizing activity, pseudovirus) [34]: > 10 µg/mL
4970_K22 (PGT-144) (antibody)	–	–	–	–	–	–	–	–	–	–	–	–	–	–	–	9.97 µg/mL	> 50 µg/mL	1.58 µg/mL	7.92 µg/mL	IC50 (neutralizing activity, pseudovirus) [34]: > 10 µg/mL
5123_A06 (PGT-125) (antibody)	–	–	–	–	–	–	–	–	–	–	–	–	–	–	–	–	–	–	–	IC50, pseudovirus neutralization [22]: > 50 µg/mL; IC50, pseudovirus neutralization [17]: 0.0066 µg/mL; IC50 neutralization [23]: 0.0262 µg/mL; IC50, pseudovirus neutralization [24]: 2.31 µg/mL; IC50, pseudovirus neutralization [25]: > 10 µg/mL; IC50, pseudovirus neutralization [26]: > 50 µg/mL; IC50 (µg/mL), pseudovirus neutralization [27]: 0.064 µg/mL; IC50 (µg/mL), pseudovirus neutralization [28]: > 50 µg/mL; IC50 neutralization [29]: 0.0156 µg/mL; IC50, pseudovirus neutralization [30]: > 50 µg/mL; Polyclonal Transfectant Neutralization Index [36]: 119; Primary Neutralization Index (B cell culture supernatant) [36]: 1730; IC50, pseudovirus neutralization [31]: > 10 µg/mL; IC50 (µg/mL), pseudovirus neutralization [32]: 0.012 µg/mL; IC50 (µg/mL), pseudovirus neutralization [33]: > 50 µg/mL; neutralization IC50 (pseudovirus) [34]: 0.0262 µg/mL
2F5 (antibody)	0.1 µg/mL	1.43 µg/mL	0.1 µg/mL	0.24 µg/mL	> 50 µg/mL	0.98 µg/mL	11.8 µg/mL	3.36 µg/mL	2.24 µg/mL	4.16 µg/mL	0.75 µg/mL	> 50 µg/mL	4.37 µg/mL	10.8 µg/mL	1.27 µg/mL	–	–	–	–	–
2G12 (antibody)	5.3 µg/mL	> 50 µg/mL	0.16 µg/mL	> 50 µg/mL	2.26 µg/mL	> 50 µg/mL	> 50 µg/mL	0.48 µg/mL	28.2 µg/mL	> 50 µg/mL	0.69 µg/mL	1.5 µg/mL	> 50 µg/mL	> 50 µg/mL	0.59 µg/mL	–	–	–	–	–
4838_L06 (PGT-121) (antibody)	–	–	–	–	–	–	–	–	–	–	–	–	–	–	–	–	–	–	–	IC50, pseudovirus neutralization [22]: > 50 µg/mL; IC50, pseudovirus neutralization [17]: > 10 µg/mL; IC50, pseudovirus neutralization [25]: > 10 µg/mL; IC50, pseudovirus neutralization [26]: 1.67 µg/mL; IC50 (µg/mL), pseudovirus neutralization [27]: 0.386 µg/mL; IC50 (µg/mL), pseudovirus neutralization [28]: > 50 µg/mL; IC50, pseudovirus neutralization [30]: > 50 µg/mL; IC50, pseudovirus neutralization [31]: > 10 µg/mL
5145_B14 (PGT-127) (antibody)	–	–	–	–	–	–	–	–	–	–	–	–	–	–	–	–	–	–	–	IC50, pseudovirus neutralization [22]: > 50 µg/mL; IC50, pseudovirus neutralization [26]: 0.068 µg/mL; IC50 (µg/mL), pseudovirus neutralization [27]: 0.279 µg/mL; IC50 (µg/mL), pseudovirus neutralization [28]: > 50 µg/mL; IC50, pseudovirus neutralization [30]: > 50 µg/mL; Polyclonal Transfectant Neutralization Index [36]: 1.61; Primary Neutralization Index (B cell culture supernatant) [36]: 31.1; IC50 (µg/mL), pseudovirus neutralization [32]: 0.032 µg/mL; IC50 (µg/mL), pseudovirus neutralization [33]: > 50 µg/mL
1495_C14 (PGC14) (antibody)	7.41 µg/mL	> 50 µg/mL	> 50 µg/mL	> 50 µg/mL	0.637 µg/mL	> 50 µg/mL	> 50 µg/mL	46 µg/mL	> 50 µg/mL	> 50 µg/mL	> 50 µg/mL	> 50 µg/mL	> 50 µg/mL	> 50 µg/mL	> 50 µg/mL	–	–	–	–	–
